Laboratory results reported in the supplement of paper PMC9170038.

System: MS2 coat protein
Assay: apparent KD of MS2 coat protein; designed switch direction (-1 OFF switch, 1 ON switch): -1; higher = weaker reporter binding
In short: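 Transcription of designed RNA switches on Illumina chips was done by stalled E. coli RNA polymerase. SNAP-549-labelled MS2 coat protein was then titrated in doubling steps from 0.7 or 1.5 nM to 3 µM, with steps of 0.8–1.5 h at the lowest and 10–20 min at the highest concentration. The per-design median over clusters of curve-fitted normalised fluorescence is reported as apparent KD.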

[1] = Eterna round: R95, input ligand: FMN 200 uM
[2] = Eterna round: R95, input ligand: microRNA oligo, concentration not stated
[3] = Eterna round: R95, input ligand: none
[4] = input ligand: microRNA oligo, concentration not stated

Row | Sequence | apparent KD of MS2 coat protein [1] | apparent KD of MS2 coat protein [2] | apparent KD of MS2 coat protein [3] | apparent KD of MS2 coat protein (input ligand: FMN 200 uM) | apparent KD of MS2 coat protein (input ligand: none) | apparent KD of MS2 coat protein [4]
1 | AGUACUAACACGAAAGUGUUAGUACAAUAAGCUUGUGGAACAUGAGGAUCACCCAUGUCCUCAUAAGCUCGUCUUAU [JL-sv3-2.12 mat747 mod] (puzzle: Sensor v3, turn-off variant 2) | 16.8 nM | 71.4 nM | 16.9 nM | – | – | –
2 | CCCUCACAUGAGGAUCACCCAUGUCAGGAUAUCUCAGUGCGUCCACACGGACACAUCAAGAGAAGGGACAAAAC [Maceedesbi] (Eterna round: R97, puzzle: Exclusion 1) | – | – | – | 26.3 nM | 18.6 nM | –
3 | AGUUGGCGAGGAUAUACAUGAGGAUCACCCAUGUGAGAGAUACUAGUGAGGUCGAUUGGUAGAAGGCGCUGACA [Mat X3R4 m19] (Eterna round: R97, puzzle: Exclusion 3) | – | – | – | 70.8 nM | 106 nM | –
4 | AGGAGCAGAGGGAGAUCCAACAUGAGGAUCACCCAUGUCUCAUAAGCUUUUUGCUCAUCUUAUUGUACCUUGGUGCU [Mat - Sensor v3 - turn-off var 1 - JL Mod - D26] (puzzle: Sensor v3, turn-off variant 1) | 35.7 nM | 14.3 nM | 37.9 nM | – | – | –
5 | AGUGUGUGGCAGGAUAUGCAAUUAAUAGGUGAAGCAGAAGGGUCUACAUGAGGAUCACCCAUGUGUGCGGUUGA [Ex6 #22] (Eterna round: R97, puzzle: Exclusion 6) | – | – | – | 154 nM | 139 nM | –
6 | UUUGUACAUGAGGAUCACCCAUGUCAGGAUAUGUCAUCGCCGUUUCCCAGCCGGCGUCACAGAAGGGACAUGCA [EX1 C.5] (Eterna round: R97, puzzle: Exclusion 1) | – | – | – | 56.6 nM | 26.2 nM | –
7 | UUAAUAAUGUAAGGAUAUGCGUGGCGAAGCUAUGCAGAAGGUACAUGAGGAUCACCCAUGUGGUCCGUCUGCGUACAGAUGGAA [JL Eng1 1.08 mod] (Eterna round: R96, puzzle: Exclusion NG 1) | – | – | – | 756 nM | 365 nM | 319 nM
8 | GAAAAGUAAGGAUAUGUCCACAGUGAGGAAACUCACUGUGGACAGAAGGUACAUGAGGAUCACCCAUGUUCCUC [ExDelusion 4 - Jieux - Exclusion 4] (Eterna round: R97, puzzle: Exclusion 4) | – | – | – | 577 nM | 44.2 nM | –
9 | UGGUAACAUGAGGAUCACCCAUGUCAGGAUAUCAGUAAGAAGAGAUUAGAGUAGAAUAUGAGAAGGGACUAUAG [Excluse me! 1 - Jieux - Exclusion 1] (puzzle: Exclusion 1) | – | 35.8 nM | – | – | – | –
10 | CAGGAUAGAGGAUAUGCAUAGAUACAGAUUCAUGUAAUCCUACAUGAGGAUCACCCAUGUAGAAGGCUAUCCUG [Fiskers Ex 2 - 17] (puzzle: Exclusion 2) | – | 14.7 nM | – | – | – | –
11 | AGUACUAACACGAAAGUGUUAGUACUAUAAGCUUGUGUUACAUGAGGAUCACCCAUGUCCUCAUAAGCUCGUCUUAU [JL-sv3-2.15 mat747 mod] (puzzle: Sensor v3, turn-off variant 2) | 86.4 nM | 31.8 nM | 115 nM | – | – | –
12 | CUAUGUGCGAGAGGAUAUCGUGUACAAAGUACACGAGAAGGCUUCACAUGAGGAUCACCCAUGUACCGAGGUGAAACACCUUGA [Omei Exc(NG)1 Bv6] (Eterna round: R96, puzzle: Exclusion NG 1) | – | – | – | 744 nM | 510 nM | 261 nM
13 | GCAAGCUUUUGCUCGUCUUACAUGAGGAUCACCCAUGUCGGGUGCUUGCUUGCGUCCGGCGUCUGGGCCGUGGCGGU [-31.9, -55.1 kcal, A 10%] (Eterna round: R97, puzzle: Sensor, turn-off variant 1) | – | – | – | 22.2 nM | 21.6 nM | –
14 | GGACAUAAAGUCAGGAUAUUAAGGCGAACAAGCGAUGAGAAGGGACAUGAGGAUCACCCAUGUGAUUCUCAUCA [Isedzaor] (Eterna round: R97, puzzle: Brourd's mod of Exclusion 4) | – | – | – | 20.5 nM | 14 nM | –
15 | UAUGUCUUUGUGAGGAUAUACUUUGUUUGGUCGUAGUAGAAGGCACAUGAGGAUCACCCAUGUAGAUUUUUGGU [JR_BME4_Sub011] (puzzle: Brourd's mod of Exclusion 4) | – | 20.1 nM | – | – | – | –
16 | UCGCUCCGUGUAGGAUAUCGCCGUUCUAUUCGGCGAGAAGGACAUGAGGAUCACCCAUGUAUGUUAUUAUCACGCGUGGCGCGC [Design 56] (Eterna round: R96, puzzle: Exclusion NG 1) | – | – | – | 18.8 nM | 15.4 nM | 8.79 nM
17 | CAAACUUCGCGAGGAUAUGGGAUCAUAUAGAUGCCAGAAGGCGCGACAUGAGGAUCACCCAUGUGUUUUGCCCUGUGAUUCCAG [Eternabot solution 12] (Eterna round: R96, puzzle: Exclusion NG 1) | – | – | – | 22.2 nM | 21.5 nM | 16.6 nM
18 | AGGUGACAUGAGGAUCACCCAUGUAAGGAUAUACGGUUAGUGGAGAGUUGGAGGAGAGGUAGAAGGUACGGAGC [JR_Exclu1_Sub060] (puzzle: Exclusion 1) | – | 174 nM | – | – | – | –
19 | CCCGUGUUAGGAUAUAUGGAAGAGCGGACGGGCGCUCCAAGGUAGAAGGAACAUGAGGAUCACCCAUGUAAUAA [Teleerdion] (Eterna round: R97, puzzle: Exclusion 4) | – | – | – | 42.6 nM | 28.6 nM | –
20 | AAGAAGCAAGGAUAUACAGAGGAGAGUAAAGCAAGAGGAGAACAUGAGGAUCACCCAUGUAGAAGGUGCAGAGA [JR_Exclu2_Sub018] (puzzle: Exclusion 2) | 40.3 nM | 20.3 nM | 29.1 nM | – | – | –
21 | UUACCAUGCCGCCUAAUAGCUUUUUGCUCGUCUUAUAUUACAUGAGGAUCACCCAUGUAGAUCAUGUGGCGUGACCU [JL ViennaUCT Maridi mod 2] (puzzle: Sensor v3, turn-off variant 2) | 126 nM | 39.6 nM | 121 nM | – | – | –
22 | AUACCACGAGGAUAUCGACUAUACCACAUGAGGAUCACCCAUGUUAUCCAUGUUUCGUUUCGAGAAGGCGUGGGUU [JR_E5_Sub073] (puzzle: Exclusion 5) | – | 32.3 nM | – | – | – | –
23 | GUAGAGUAAGGAUAUGGAGAAUAGGAUAGAAUGGUUAGAAUCUAGAAGGUACAUGAGGAUCACCCAUGUAAUGU [Excluse me!!!! 9 - Jieux - Exclusion 4] (puzzle: Exclusion 4) | – | 21.2 nM | – | – | – | –
24 | AGUAUGUUAGGAUAUUCCAUUGCUGUCAGCUCGGCGUCACAGAAGAAGGGACAUGAGGAUCACCCAUGUUAGGC [Eternabot (L1) Solution 96] (Eterna round: R97, puzzle: Exclusion 4) | – | – | – | 57.3 nM | 71.4 nM | –
25 | CUUUUGUCAGGAUAUCGUGCAUACAACGAAAGUUCUAUGUGCGAGAAGGGACAUGAGGAUCACCCAUGUUACGG [Omei Ex4 A6] (Eterna round: R97, puzzle: Exclusion 4) | – | – | – | 175 nM | 677 nM | –
26 | GCUAGUCAUGUCAGGAUAUGCUGUUCCUUGGAACAGCAGAAGGGACAUGAGGAUCACCCAUGUGCCUAACUAGC [Mat - Exclusion 4 - JL Mod - D12] (Eterna round: R97, puzzle: Brourd's mod of Exclusion 4) | – | – | – | 558 nM | 43.8 nM | –
